Blank lines part the entries; values can stand above or below the molecule they belong to.
Tests used:
3×MBT domain of L3MBTL1 = assay: Triple SILAC pull-down, 3xMBT/3xMBTD355N ratio (cytoplasmic, nuclear and chromatin fractions of 293T cells); assay type: binding, human; conditions: SILAC ratio, pull-down 3xMBT vs 3xMBTD355N; for 3xMBT/D355N UNC Heavy: experiment with UNC0638 in heavy SILAC media; for 3xMBT/D355N UNC Light: experiment with UNC0638 in light SILAC media;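 as to all read-outs here: proteins quantified with MaxQuant, requiring at least two unique peptides and quantification in both label directions, normalized to the mean of proteins from a digested loading control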
G9a and GLP = target: T1, G9a and GLP (Homo sapiens, UniProt Q96KQ7+Q9H9B1); assay: Triple SILAC pull-down after UNC0638 treatment of 293T cells, DMSO/UNC0638 ratio of protein captured by 3×MBT; assay type: cell-based; parameters: endogenous in cells; host or cells: HEK 293T; conditions: for Relative to UNC0638 UNC Heavy / Relative to UNC0638 UNC Light: SILAC ratio DMSO/UNC0638 of protein pulled down with 3xMBT; for Relative to UNC0638 UNC Heavy: UNC0638 in heavy SILAC media; for Relative to UNC0638 UNC Light: UNC0638 in light SILAC media; for Relative to UNC0638 Average: average of UNC Light and UNC Heavy experiments;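 as to all read-outs here: mass spectrometry (Q-Exactive) SILAC quantitation, DMSO/UNC0638 ratio computed after subtracting 3×MBTD355N mutant pull-down background, only proteins with at least twofold 3×MBT over mutant signal considered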
T1 sequence (Q96KQ7 2-1210 limits assumed): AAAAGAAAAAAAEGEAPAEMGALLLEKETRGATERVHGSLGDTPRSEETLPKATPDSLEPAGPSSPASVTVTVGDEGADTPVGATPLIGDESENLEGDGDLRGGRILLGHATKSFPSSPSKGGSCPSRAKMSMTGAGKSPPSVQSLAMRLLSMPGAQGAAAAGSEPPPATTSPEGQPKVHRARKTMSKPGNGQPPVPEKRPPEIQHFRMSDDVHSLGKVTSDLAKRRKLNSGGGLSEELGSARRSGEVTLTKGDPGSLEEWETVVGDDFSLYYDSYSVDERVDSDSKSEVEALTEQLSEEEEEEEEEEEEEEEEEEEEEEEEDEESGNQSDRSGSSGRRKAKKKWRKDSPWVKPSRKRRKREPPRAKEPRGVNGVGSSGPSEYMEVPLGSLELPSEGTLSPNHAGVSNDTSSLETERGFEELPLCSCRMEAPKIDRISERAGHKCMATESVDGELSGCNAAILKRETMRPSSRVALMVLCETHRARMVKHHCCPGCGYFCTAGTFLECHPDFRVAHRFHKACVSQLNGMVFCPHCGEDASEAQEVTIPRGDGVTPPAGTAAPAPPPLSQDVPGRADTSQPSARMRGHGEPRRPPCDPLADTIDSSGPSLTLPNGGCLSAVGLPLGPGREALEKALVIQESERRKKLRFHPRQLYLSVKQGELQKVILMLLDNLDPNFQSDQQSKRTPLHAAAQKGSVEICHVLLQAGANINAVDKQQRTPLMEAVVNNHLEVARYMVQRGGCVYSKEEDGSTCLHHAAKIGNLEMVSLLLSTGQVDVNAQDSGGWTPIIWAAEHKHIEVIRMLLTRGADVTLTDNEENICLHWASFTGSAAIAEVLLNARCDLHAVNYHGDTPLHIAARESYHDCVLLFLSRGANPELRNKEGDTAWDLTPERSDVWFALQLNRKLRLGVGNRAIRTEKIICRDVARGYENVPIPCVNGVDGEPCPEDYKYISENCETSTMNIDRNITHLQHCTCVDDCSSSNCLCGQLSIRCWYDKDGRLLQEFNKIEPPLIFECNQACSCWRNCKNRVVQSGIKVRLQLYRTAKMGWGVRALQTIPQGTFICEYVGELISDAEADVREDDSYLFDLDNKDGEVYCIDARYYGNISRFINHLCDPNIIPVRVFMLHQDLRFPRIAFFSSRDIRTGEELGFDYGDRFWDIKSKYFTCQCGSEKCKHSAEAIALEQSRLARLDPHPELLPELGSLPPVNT
T1 sequence (Q9H9B1 2-1298 limits assumed): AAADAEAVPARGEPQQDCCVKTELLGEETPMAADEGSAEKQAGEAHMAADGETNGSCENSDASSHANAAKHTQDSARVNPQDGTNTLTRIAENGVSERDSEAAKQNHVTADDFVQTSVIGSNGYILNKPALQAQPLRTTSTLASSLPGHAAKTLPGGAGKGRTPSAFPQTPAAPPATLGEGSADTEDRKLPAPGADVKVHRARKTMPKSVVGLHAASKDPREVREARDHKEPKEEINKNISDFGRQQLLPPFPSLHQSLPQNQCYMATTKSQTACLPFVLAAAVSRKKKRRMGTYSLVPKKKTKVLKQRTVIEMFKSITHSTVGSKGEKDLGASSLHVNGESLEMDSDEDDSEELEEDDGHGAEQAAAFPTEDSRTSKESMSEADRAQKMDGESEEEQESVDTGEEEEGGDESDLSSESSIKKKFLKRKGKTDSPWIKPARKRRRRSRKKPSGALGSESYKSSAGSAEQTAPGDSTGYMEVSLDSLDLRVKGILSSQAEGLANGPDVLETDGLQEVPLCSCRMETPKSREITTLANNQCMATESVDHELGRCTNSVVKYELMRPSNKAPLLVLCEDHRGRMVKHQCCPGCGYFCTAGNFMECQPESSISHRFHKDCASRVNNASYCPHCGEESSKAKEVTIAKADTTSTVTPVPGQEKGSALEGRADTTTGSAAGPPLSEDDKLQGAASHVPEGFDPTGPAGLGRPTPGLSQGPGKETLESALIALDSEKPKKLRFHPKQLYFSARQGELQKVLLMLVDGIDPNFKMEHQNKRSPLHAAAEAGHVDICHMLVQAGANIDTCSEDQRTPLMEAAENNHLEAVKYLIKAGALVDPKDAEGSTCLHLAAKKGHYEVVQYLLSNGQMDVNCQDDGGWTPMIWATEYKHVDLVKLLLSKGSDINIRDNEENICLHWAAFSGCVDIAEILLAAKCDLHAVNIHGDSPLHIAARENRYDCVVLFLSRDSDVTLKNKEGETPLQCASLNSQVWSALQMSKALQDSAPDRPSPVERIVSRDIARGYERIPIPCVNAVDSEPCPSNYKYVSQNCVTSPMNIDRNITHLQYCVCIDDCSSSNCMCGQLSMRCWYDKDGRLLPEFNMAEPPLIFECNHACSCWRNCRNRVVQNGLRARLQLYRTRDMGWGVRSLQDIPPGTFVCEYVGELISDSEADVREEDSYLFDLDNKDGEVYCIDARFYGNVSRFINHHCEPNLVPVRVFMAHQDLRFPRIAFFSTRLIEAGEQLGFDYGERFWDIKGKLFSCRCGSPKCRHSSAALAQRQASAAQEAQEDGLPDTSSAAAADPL

Relative to UNC0638 UNC Heavy (G9a and GLP): 0.27 log base 2 | Relative to UNC0638 UNC Light (G9a and GLP): 0.10 log base 2 | Relative to UNC0638 Average (G9a and GLP): 0.19 log base 2
B1: SRP72 (protein, UniProt O76094 2-671, looked up)
Signal recognition particle …: ASGGSGGVSVPALWSEVNRYGQNGDFTRALKTVNKILQINKDDVTALHCKVVCLIQNGSFKEALNVINTHTKVLANNSLSFEKAYCEYRLNRIENALKTIESANQQTDKLKELYGQVLYRLERYDECLAVYRDLVRNSQDDYDEERKTNLSAVVAAQSNWEKVVPENLGLQEGTHELCYNTACALIGQGQLNQAMKILQKAEDLCRRSLSEDTDGTEEDPQAELAIIHGQMAYILQLQGRTEEALQLYNQIIKLKPTDVGLLAVIANNIITINKDQNVFDSKKKVKLTNAEGVEFKLSKKQLQAIEFNKALLAMYTNQAEQCRKISASLQSQSPEHLLPVLIQAAQLCREKQHTKAIELLQEFSDQHPENAAEIKLTMAQLKISQGNISKACLILRSIEELKHKPGMVSALVTMYSHEEDIDSAIEVFTQAIQWYQNHQPKSPAHLSLIREAANFKLKYGRKKEAISDLQQLWKQNPKDIHTLAQLISAYSLVDPEKAKALSKHLPSSDSMSLKVDVEALENSAGATYIRKKGGKVTGDSQPKEQGQGDLKKKKKKKKGKLPKNYDPKVTPDPERWLPMRERSYYRGRKKGKKKDQIGKGTQGATAGASSELDASKTVSSPPTSPRPGSAATVSASTSNIIPPRHQKPAGAPATKKKQQQKKKKGGKGGW
3xMBT/D355N UNC Heavy (3×MBT domain of L3MBTL1): 1.68 log base 2 | 3xMBT/D355N UNC Light (3×MBT domain of L3MBTL1): 2.90 log base 2

Relative to UNC0638 UNC Heavy (G9a and GLP): 0.15 log base 2 | Relative to UNC0638 UNC Light (G9a and GLP): 3.16 log base 2 | Relative to UNC0638 Average (G9a and GLP): 1.65 log base 2 | Candidate G9a/GLP target (G9a and GLP; reduced association with 3xMBT after UNC0638 treatment): ✓
B2: CPSF2 (protein, UniProt Q9P2I0 1-782, looked up)
Cleavage and polyadenylation …: MTSIIKLTTLSGVQEESALCYLLQVDEFRFLLDCGWDEHFSMDIIDSLRKHVHQIDAVLLSHPDPLHLGALPYAVGKLGLNCAIYATIPVYKMGQMFMYDLYQSRHNTEDFTLFTLDDVDAAFDKIQQLKFSQIVNLKGKGHGLSITPLPAGHMIGGTIWKIVKDGEEEIVYAVDFNHKREIHLNGCSLEMLSRPSLLITDSFNATYVQPRRKQRDEQLLTNVLETLRGDGNVLIAVDTAGRVLELAQLLDQIWRTKDAGLGVYSLALLNNVSYNVVEFSKSQVEWMSDKLMRCFEDKRNNPFQFRHLSLCHGLSDLARVPSPKVVLASQPDLECGFSRDLFIQWCQDPKNSIILTYRTTPGTLARFLIDNPSEKITEIELRKRVKLEGKELEEYLEKEKLKKEAAKKLEQSKEADIDSSDESDIEEDIDQPSAHKTKHDLMMKGEGSRKGSFFKQAKKSYPMFPAPEERIKWDEYGEIIKPEDFLVPELQATEEEKSKLESGLTNGDEPMDQDLSDVPTKCISTTESIEIKARVTYIDYEGRSDGDSIKKIINQMKPRQLIIVHGPPEASQDLAECCRAFGGKDIKVYMPKLHETVDATSETHIYQVRLKDSLVSSLQFCKAKDAELAWIDGVLDMRVSKVDTGVILEEGELKDDGEDSEMQVEAPSDSSVIAQQKAMKSLFGDDEKETGEESEIIPTLEPLPPHEVPGHQSVFMNEPRLSDFKQVLLREGIQAEFVGGVLVCNNQVAVRRTETGRIGLEGCLCQDFYRIRDLLYEQYAIV
3xMBT/D355N UNC Heavy (3×MBT domain of L3MBTL1): 1.85 log base 2 | 3xMBT/D355N UNC Light (3×MBT domain of L3MBTL1): 4.20 log base 2
